The target of the test is human DCIR (dendritic cell immunoreceptor), full length, isotype 1 (human) (UniProt Q9UMR7). The test can be described thus: cell-based or functional assay.
UniProt Q9UMR7, sequence (Q9UMR7 whole entry): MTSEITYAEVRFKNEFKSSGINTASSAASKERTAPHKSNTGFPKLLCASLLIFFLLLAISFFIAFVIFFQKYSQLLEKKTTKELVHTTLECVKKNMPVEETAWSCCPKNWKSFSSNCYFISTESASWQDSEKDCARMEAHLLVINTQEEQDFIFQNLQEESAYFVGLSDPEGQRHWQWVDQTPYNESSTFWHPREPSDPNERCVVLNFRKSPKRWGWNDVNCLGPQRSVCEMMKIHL

The substance “HIV-1 NL4-3balenv virions (R5-tropic; NL4-3 with the env gene of HIV-1 Bal)” yielded a reduction in virus transfer from IM-MDDC to CD4+ T cells after DCIR-specific siRNA, in absence of EFV of 30% and a reduction in virus transfer from IM-MDDC to CD4+ T cells after DCIR-specific siRNA, in cells treated with EFV of 40%.

(Values after patent US20100061991A1.)
